The record followed here is publication PMC11865173, “Improving the hydrophilic microenvironment surrounding the catalytic site of fructosyltransferase enhances its catalytic ability” (Biotechnology Letters, 2025).

For data set [1], the system named is T1, OC[C@H]1O[C@@](CO)(O[C@H]2O[C@H](CO)[C@@H](O)[C@H](O)[C@H]2O)[C@@H](O)[C@@H]1O.
T1 construct: codon-optimised synthetic gene downstream of alpha-factor in pPIC9K, secreted from Pichia pastoris GS115; purified by size exclusion chromatography; model covers residues 25-628; no tag mentioned
The data set can be described thus: glucose release measured by biosensor, Michaelis-Menten nonlinear fit. Format: biochemical, Aspergillus niger. The following applies: 50 °C, pH 5.5, 5 min, transfructosylation. The source says: (§1) glucose release measured by biosensor, Michaelis-Menten nonlinear fit on SucC

Substrate in data set [2]: OC[C@H]1O[C@@](CO)(O[C@H]2O[C@H](CO)[C@@H](O)[C@H](O)[C@H]2O)[C@@H](O)[C@@H]1O
The description is as above. Format: biochemical, Aspergillus niger. The following applies: 50 °C, pH 5.5, 5 min, transfructosylation.
Excerpt: as §1

As a reminder, the Km is the concentration of substrate that gives half-maximal velocity. Usually kcat stands for the number of substrate molecules converted per active site and unit of time at saturation. In general, kcat/Km refers to the second-order rate constant that governs catalysis at low substrate concentration. Regarding SucC (Aspergillus niger; C66S), in data set [1], the Km is listed as 71.14 mM, the kcat came out at 2.27 s⁻¹ and the kcat/Km is 32 M⁻¹ s⁻¹.

B1: SucC (Aspergillus niger) (protein)
chain: MQTRASVVIDYNVAPPNLSTLPNGSLFETWRPRAHVLPPNGQIGDPCLHYTDPSTGLFHVGFLHDGSGISSATTDDLATYKDLNQGNQVIVPGGINDPVAVFDGSVIPSGINGLPTLLYTSVSFLPIHWSIPYTRGSETQSLAVSSDGGSNFTKLDQGPVIPGPPFAYNVTAFRDPYVFQNPTLDSLLHSKNNTWYTVISGGLHGKGPAQFLYRQYDPDFQYWEFLGQWWHEPTNSTWGNGTWAGRWAFNFETGNVFSLDEYGYNPHGQIFSTIGTEGSDQPVVPQLTSIHDMLWVSGNVSRNGSVSFTPNMAGFLDWGFSSYAAAGKVLPSTSLPSTKSGAPDRFISYVWLSGDLFEQAEGFPTNQQNWTGTLLLPRELRVLYIPNVVDNALARESGASWQVVSSDSSAGTVELQTLGISIARETKAALLSGTSFTESDRTLNSSGVVPFKRSPSEKFFVLSAQLSFPASARGSGLKSGFQILSSELESTTVYYQFSNESIIVDRSNTSAAARTTDGIDSSAEAGKLRLFDVLNGGEQAIETLDLTLVVDNSVLEIYANGRFALSTWVRSWYANSTNISFFQNGVGGVAFSNVTVSEGLYDAWPDRQS
notes: codon-optimised synthetic gene downstream of alpha-factor in pPIC9K, secreted from Pichia pastoris GS115; purified by size exclusion chromatography; model covers residues 25-628; no tag mentioned
B1: in data set [2], the Km is on record as 82.20 mM, the kcat turned out to be 1.87 s⁻¹ and the kcat/Km is 22.8 M⁻¹ s⁻¹.
